This is an account of results in patent US20020081293A1.

In assay [1] the target is dog factor D (in serum) (dog). Briefly: cell-based or functional assay. The note with it: scale: times less effective than on human factor D.
Assay [2] addresses human factor D purified from human serum (human) (UniProt P00746). Briefly: cell-based or functional assay.
Assay [3] shares this target. Briefly: SPR (BIAcore), factor D amine-coupled to the chip, MAb 166-32 as analyte. A general note: SPR reads the build-up and loss of mass on a sensor chip optically.
The target is the same in assay [4]. Briefly: SPR (BIAcore), MAb captured by rabbit anti-mouse IgG, factor D as analyte.

UniProt P00746, sequence (P00746 26-253): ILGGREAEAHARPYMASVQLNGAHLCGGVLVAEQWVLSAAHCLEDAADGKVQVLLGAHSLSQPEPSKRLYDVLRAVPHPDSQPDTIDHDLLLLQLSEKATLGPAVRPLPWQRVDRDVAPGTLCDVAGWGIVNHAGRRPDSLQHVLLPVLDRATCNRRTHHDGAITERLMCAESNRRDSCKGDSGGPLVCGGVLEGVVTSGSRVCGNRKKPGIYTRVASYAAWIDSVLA

Broadly, the Kd is the equilibrium constant for the complex coming apart. For orientation: koff means the rate constant with which the complex falls apart. A word on the kon: it is a measure of how fast the partners come together. In assay [1], monoclonal antibody 166-32 displayed a neutralization of dog factor D in hemolytic assays, against human factor D of 10. Moreover, in assay [2], the inhibition of factor D dependent hemolysis of unsensitized rabbit RBCs (factor D depleted human serum with 0.1 µg/ml supplemented factor D) is 0.3 µg/mL, the molar ratio for complete inhibition of alternative complement activity in extracorporeal circuit plasma (18 µg/ml MAb) (molar ratio (MAb : factor D)) was 1.5 and the molar ratio for inhibition of factor D dependent hemolysis (molar ratio (MAb 166-32 to factor D)) amounted to 0.5. Also, in assay [3], the Kd came to 0.16 nM, the off-rate constant (koff) came to 7.6e-05 s⁻¹ and the kon was found to be 460000 M⁻¹ s⁻¹. In assay [4], this substance came in with a dissociation constant Kd of less than 0.1 nM, a koff of 0.00011 s⁻¹ and an on-rate constant (kon) greater than 1e+06 M⁻¹ s⁻¹.
